{
  "source": "paper PMC9927489",
  "about": "(Microbiology Spectrum, 2023)",
  "key": {"[1]": {"target": "Mycobacterium tuberculosis dUTPase mutant mDut H145F, His-tagged (Mycobacterium tuberculosis (strain H37Rv)) (UniProt P9WNS5)", "assay": "BLI; […] (218.7 nM) […]; 28°C; 1:1 kinetic model"}, "[2]": {"target": "Mycobacterium tuberculosis dUTPase mutant mDut H145F, His-tagged (Mycobacterium tuberculosis (strain H37Rv)) (UniProt P9WNS5)", "assay": "BLI; […] (218.7 nM) […]; 28°C; 1:1 kinetic model", "remark": "listed apart in the source"}},
  "note": "Read-outs that look alike come from different tables or passages of the source.",
  "data": [
    {"substance": "Stl^N-ter (SaPIbov1 Stl, N-terminal DNA-binding domain and middle domain, residues 1 to 156) (domain or fragment)", "values": [
      {"measurement": "Kd", "setting": "[1]", "result": 12.5, "unit": "nM"},
      {"measurement": "koff", "setting": "[1]", "result": 0.00483, "unit": "s⁻¹"},
      {"measurement": "kon", "setting": "[1]", "result": 388000, "unit": "M⁻¹ s⁻¹"},
      {"measurement": "Kd", "setting": "[2]", "result": 12.4, "unit": "nM"}
    ]}
  ]
}
